Test results as given in the supplement of paper PMC10567573.

B1: SNX8 (parent)
chain: RMVPALPPKRMLGADREFIEARRR

Variants of: B1
Assay: protein stability index of a GFP-peptide fusion (GPS, HEK-293T) (PSI 1-6); higher = more stable
Conditions: c terminus: a fixed tail appended
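Note: lentivirally expressed fusions sorted by FACS into six bins by GFP to DsRed ratio, PSI derived from sequencing read proportions per bin multiplied by bin number.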

Protein stability index of substitutions, site by site:
D15: M 1.56, V 2.15, S 3.77, E 3.52, H 3.22, Y 2.64, P 4.16, A 2.77, Q 3.93, F 1.99, G 3.98, C 2.42, N 3.43, I 1.91, T 3.69, K 3.16, W 2.5, L 1.52
A5: Q 4.1, P 3.59, W 3.06, R 4.31, V 4.01, T 3.81, Y 3.12, S 4.05
F18: I 3.85, E 4.43, S 4.38, L 3.84, K 4.26, Y 4.07, M 3.78, P 4.64, C 4.45, Q 4.46, W 3.75, N 4.45, G 4.57, D 4.08, V 4.12, T 4.2, R 4.52, A 3.56, H 4.18
L6: A 4, S 4.84, W 3.15, D 4.44, V 3.97, K 3.73, Q 4.02, N 3.96, Y 3.39, C 3.67, G 3.88, E 4.52, R 4.3, F 3.45, T 3.63, I 3.96, M 3.73
E17: V 2.81, T 3.55, D 3.67, K 4.19, H 3.45, Y 3.21, Q 3.34, P 4.09, G 3.97, C 3.61, M 2.38, R 4.1, N 4, S 3.87, I 2.64, A 3.55, L 3.37, F 2.08, W 2.19
R16: H 3.67, M 3.55, T 3.56, D 4.07, V 3.62, G 3.88, F 1.96, K 3.71, A 4.04, Y 2.08, C 3.53, P 4.33, W 2.42, I 2.78, S 3.91, E 4.41, N 4.39, L 2.65
R10: G 4.16, I 3.94, V 4.04, M 4.06, P 4.44, K 3.81, N 3.98, A 4.23, D 4.61, L 3.5, T 4.24, E 4.84, F 3.39, Y 3.71, C 3.61, S 4.05, Q 4.39, H 4.21
A14: W 2.51, T 3.63, G 3.96, E 4.34, S 3.9, K 3.84, R 3.73, V 3.02, C 3.52, Y 2.88, Q 3.81, N 4.72, L 3.55, I 3.54, H 3.71, F 3.37, P 4, D 4.19, M 3.24
K9: N 4.26, A 4.09, L 4.01, W 4.02, T 3.64, F 3.83, P 4.37, G 3.6, Q 4.73, M 3.81, E 4.12, R 2.99, I 4.17, S 4.35, H 4.53, V 4.61, C 2.95, D 4.12, Y 3.95
L12: G 4.66, T 4.43, N 4.89, H 4, I 4.08, E 5.11, W 4.05, P 4.18, F 4.12, R 4.19, M 3.95, C 3.91, A 4.53, Q 4.61, S 4.41, K 3.25, D 4.54, Y 3.73, V 4.42
A21: Y 3.24, L 4.1, Q 3.61, T 3.96, F 3.31, K 4.19, S 3.12, M 3.04, I 3.34, C 4.08, R 3.56, N 4.52, E 3.43, W 2.67, G 4.32, D 3.83, V 3.76, P 3.88, H 4.32
M11: G 4.28, A 3.86, R 4.58, C 3.46, H 3.52, Y 2.99, V 3.37, T 4.27, W 2.54, K 3.94, Q 3.6, S 4.23, P 4.42, F 3.36, I 4.78, L 3.69, N 3.77, E 3.91, D 4.62
I19: W 3.82, D 4.41, N 3.73, R 4.16, E 4.11, S 3.43, Q 4.29, H 3.35, Y 3.98, L 3.06, T 4.39, K 4.26, F 3.61, P 4.65, C 3.36, A 4.23, M 3.55, V 4.09, G 3.96
R23: H 2.21, G 3.79, I 2.58, E 4.16, D 4.53, A 2.54, F 1.75, C 2.95
R22: C 4, E 4.43, L 2.92, W 2.73, K 4.09, I 2.74, T 3.75, S 3.75, M 3.16, N 3.77, V 3.33, Y 3.43, Q 4.05, D 4.53, P 3.79, F 3.58, H 3.76, G 4.02, A 4.33
G13: T 3.14, F 2.22, D 3.79, M 2.43, W 2.17, Y 3.13, E 3.57, S 3.54, H 3.37, K 3.72, V 2.54, N 3.29, I 2.79, C 2.17, R 4.06, Q 3.25, A 2.81, P 2.83, L 2.69
E20: I 3.27, L 3.9, Q 4.01, K 3.94, S 4, N 4.12, G 4.02, M 3.39, H 3.98, Y 3.68, P 4.24, F 3.12, W 3.26, V 4.11, C 4.06, D 4.31, A 3.51, R 4.28, T 3.99
P7: R 3.76, K 3.91, L 3.18, A 3.58, T 3.6, V 4.05, S 4.08, N 3.45, M 3.52, I 3.62, C 2.91, G 4.01, E 4.35, D 3.87, W 3.3, Y 3.49, H 3.75, Q 3.5, F 3.4
P8: F 3.18, M 3.06, V 3.44, L 3.17, H 3.85, Q 3.79, G 3.53, Y 3.88, N 3.79, K 3.87, S 3.73, T 3.31, E 3.86, C 2.77, W 3.31, D 3.82, I 3.02, A 4.23, R 3.88
